Experimental data taken from a protein production outcome set (Wang et al. 2014).

experiment: label from the status in PepcDB records

| Sequence | protein production |
| --- | --- |
| MFSAKKLSPADKLKNISSMLEEIVEDTTVPRNIRAAADNAKNALHNEEQELIVRSATAIQYLDDISEDPNMPIHTRTQIWGIVSELETIKN | not failed |
| MFSIIWMLFTPLLLLCGIAGGIFLIVTGIKYRKLLVGLMGLLSLSFVTLPFVLLSVGIHIDTIFPIPTALYWTLFSLTGLLAGVSGVQAKIKSIRNMGFIIFTIGILGVIFWELMSVGDSFYI | failed |
| MFSILLPTWNNLALLKLCVQSIRAHSAHDHQIIVHVNDGSDGTLAWVREQGLDHTHSPGNVGICLAVNESAMLARHDYIVYLNDDMVCCPGWDTALLRRLDTLDTDLFMLSGTMIEPVDTGNPCVVVGNYGRDADTFDAARLLADVPRLARGDWLGATWPPTLVHRRWWFKLGGYSSELTPGMSSDNDFSMKLWHAGCRIFLGAGDSLVYHFQCKSTGKVKKNDGRRQFLNKWGLSQSTFDKYFLRRGTPAGADWRLPEPELTSALRWDLRRNDLTRRLRPGVPVLLEHHHHHH | not failed |
| MFSIQQPLLVFSDLDGTLLDSHSYDWQPAAPWLTRLREANVPVILCSSKTSAEMLYLQKTLGLQGLPLIAENGAVIQLAEQWQEIDGFPRIISGISHGEISLVLNTLREKEHFKFTTFDDVDDATIAEWTGLSRSQAALTQLHEASVTLIWRDSDERMAQFTARLNELGLQFMQGARFWHVLDASAGKDQAANWIIATYQQLSGKRPTTLGLGDGPNDAPLLEVMDYAVIVKGLNREGVHLHDEDPARVWRTQREGPEGWREGLDHFFSAR | not failed |
| MFSRVPQPLAFAEALLAQFGALSRETDITALLGGFARAVGELSGCELSQLYLLDQTHTALTLNAECRDGLLQALEPSSLPADYTGEQLLQFALCQNRVVSLVDLPSRLHETGFLPAGEQPWLSLLCVPLVSPEKTVEGMVVCATRRPLDLQGFAHPLGQLGSFVLAQLHLLQRLSQPSGE | not failed |
| MFSVNNTHSSVSCSPSINSNSTSNEHYLRILTEWEKNSSPGEERGIAFNRLSQCFQNQEAVLNLSDLNLTSLPELPKHISALIVENNKLTSLPKLPAFLKELNADNNRLSVIPELPESLTTLSVRSNQLENLPVLPNHLTSLFVENNRLYNLPALPEKLKFLHVYYNRLTTLPDLPDKLEILCAQRNNLVTFPQFSDRNNIRQKEYYFHFNQITTLPESFSQLDSSYRINISGNPLSTRVLQSLQRLTSSPDYHGPQIYFSMSDGQQNTLHRPLADAVTAWFPENKQSDVSQIWHAFEHEEHANTFSAFLDRLSDTVSARNTSGFREQVAAWLEKLSASAELRQQSFAVAADATESCEDRVALTWNNLRKTLLVHQASEGLFDNDTGALLSLGREMFRLEILEDIARDKVRTLHFVDEIEVYLAFQTMLAEKLQLSTAVKEMRFYGVSGVTANDLRTAEAMVRSREENEFTDWFSLWGPWHAVLKRTEADRWAQAEEQKYEMLENEYSQRVADRLKASGLSGDADAEREAGAQVMRETEQQIYRQLTDEVLALRLSENGSRLHHS | not failed |
| MFTGFNWQQMISAFIVLFAVIDIIGSIPIIINLKEKGKDVNATKATVISFALLIGFFYAGDMMLKLFHVDIESFAVAGAFVIFLMSLEMILDIEIFKNQGPIKEATLVPLVFPLLAGAGAFTTLLSLRAEYASVNIIIALILNMLWVYFVVSMTGRVERFLGKGGIYIIRKFFGIILLAISVRLFTANITLLIEALHKS | failed |
| MFTINTKSQLPIYEQIVQKIKEQVVKGILQEGEKILSIREFASRIGVNPNTVSKAYQELERQEVIVTVKGKGTFIADQTEKNSSPKKLAETKIKLKEIILDLVYLGINVEEIHKLSVEYSQDIIGGDKI | failed |
| MFTLFAIQFFTTAAAVAFLLTELMGGFMLLFDWKNSGQKIMTYVAPIWEVTGTFLAMFVVETDATFAGILIPAAFAFAALLLIFLILFIVRNVAIILGEFAGSRKIFTDRQLYYIYVIATLLISVVFLAFSSAIISGNGVKIDIAGNPVDSLLSVSNAEISFNLASWLAGPGDILFVVSAALIAFGLSPVFYDVDRFSTYGVISSVIGFILGIVSFVQMGVHISPIIIIPAIIIIGVPILYRIGLAKKILTNKALFIVLLIVSIYSLYFTVYPSAMNGKLPLSQIITTGPMVIGTILTTVVGFTLLAFMLSLYVYVNYRSSRNQMTTLPK | failed |
| MFVGVDHAGRDWSWKEPGSTKACRNFMITLFAEWALPATTGQASGRRAMARKFMVPALAVLAFAIAAPAFAQVPANIAKAVADPSRPAAETARDAARRPGEILAMAELKPGDTVVDYIMGGGYFTRIISGAVGPQGVVYAYQPAEFIRFAARYGESLKAVTAALANSKPLDGPITALDLPDNVDAVITVQNYHDMHLKPFPTDTAAKANAEIFKSLKPGGVFLVIDHSAIAGSGITAADTLHRIDIAAVKQEVEAAGFKLEAESGLLADPADARTINVFDPAIRGKTDQFILKFRKPK | failed |
